First the molecules themselves.
B1: humanized Ab REMD 277.1 (VH2-1/VL2-1) (antibody, human IgG1, kappa, V domains shown)
VH: EVQLVQSGAEVKKPGESLKISCKGSGYTFTSYVMHWVRQMPGKGLEWMGYINPYNDGTKYNEKFKGQVTISADKSISTAYLQWSSLKASDTAMYYCARYYGSNYAMDYWGQGTMVTVSS
VL: EIVLTQSPATLSLSPGERATLSCRASQDIRNYLNWYQQKPGQAPRLLIYYTSRLHSGIPARFSGSGSGTDFTLTISSLEPEDFAVYYCQQGNTLPWTFGQGTKVEIKR
B2: humanized Ab REMD 277.2 (VH2-1/VL5BM) (antibody, human IgG1, kappa, V domains shown)
VH: B1 VH
VL: DIQMTQSPSSLSASVGDRVTISCRASQDIRNYLNWYQQKPGKTVKLLIYYTSRLHSGVPSRFSGSGSGTDYTFTISSLQPEDIATYFCQQGNTLPWTFGGGTKLEIKR
B3: humanized Ab REMD 277 (VH2-1/VL2-2) (antibody, human IgG1, kappa, V domains shown)
VH: B1 VH
VL: B1 VL with L4M, L13A, A19V, Q42G, P44V, I58V, F71Y, F83Y, Y87F
B4: murine-human chimeric antibody derived from murine antibody A6 (chimeric IgG) (antibody, V domains shown)
VH: EVQLQQSGPELVKPGASVKMSCKASGYTFTSYVMHWVKQKPGQGLEWIGYINPYNDGTKYNEKFKGKATLTSDKSSSTAYMELSSLTSEDSAVYYCANYYGSNYAMDYWGQGTSVTVSS
VL: B2 VL with S7T, P8T, V15L, G41D, K42G, T72S, F73L, S77N, Q79E, P80Q
notes: also called chimeric OX40 Ab
B5: murine antibody A4 (13C2G10F10) (antibody, V domains shown)
VH: B4 VH with V33I, N103S, A105T
VL: DIQMTQTTSSLSASLGDRVTISCRASQDIRNYLNWYQQKPDGSVKLLIYYTSRLHSGVPSRFSGSGSGTDYSLTISNLEQEDIATYFCQQGNTLPWTFGGGTKLEIK
notes: also called MAb A4; H4/L4
B6: murine antibody A5 (40H11C2F5) (antibody, V domains shown)
VH: EVQLQQSGPELVKPGASVKISCKASGYTFTENYMNWVKQSHGKSLEWIGDINRNNGGTRYNQKFKGKATLTVDKSSSTDYMELRSLTSEDSAVYYCGGTVVGYFDVWGTGTTVTVSS
VL: B5 VL with T7I, T8I, S9T, A25S, R30S, S43T, H55K
notes: also called MAb A5; H5/L5
B7: murine antibody A3 (14F2C2D7) (antibody, V domains shown)
VH: QVQLKESGPGLVAPSQSLSITCTVSGFSLSSYGVHWVRQPPGKGLEWLGVIWAGGSTDYNSALMSRLSISKDNSKSQVVLKMNSLQTDDTAMYYCAREEVWDWGQGTLVTVSA
VL: B5 VL with R30S, S43T, H55Q, W96L, G100A, I106L
notes: also called MAb A3; H3/L3
B8: murine antibody A6 (2G2E2D8) (antibody, V domains shown)
VH: B4 VH
VL: B5 VL with S43T
notes: also called MAb A6; Murine A6

Numbering of substitutions follows the chain as printed. Values joined by “and” are separate entries in the source; they are usually repeats but may differ in a detail not shown here. Identical values can stand only once.

In general, Kd refers to the equilibrium constant for the complex coming apart. A high value points to a looser complex. The EC50 is the concentration needed to bring the measured effect to its halfway point. Read a high EC50 as lower potency in that assay. The koff is the first-order rate constant of dissociation. The kon is the second-order rate constant of association. Read a high kon as fast association. Usually IC50 stands for the concentration that inhibits the measured activity by half.

In one assay the target is T1, OX40-his (Homo sapiens (Human), UniProt P43489 29-214, limits assumed).
T1 construct: Analyte of the Biacore 8K assay; also called Ag OX40-his; Antigen OX40-his; not shown: His tag
T1 sequence: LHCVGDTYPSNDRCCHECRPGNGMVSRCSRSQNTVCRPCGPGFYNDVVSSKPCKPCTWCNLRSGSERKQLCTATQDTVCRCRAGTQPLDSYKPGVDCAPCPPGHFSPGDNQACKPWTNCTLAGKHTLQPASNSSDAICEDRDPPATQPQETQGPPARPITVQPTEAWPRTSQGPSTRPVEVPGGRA
The assay can be described thus: SPR Biacore (summary table; repeats Table 6). On the procedure: (§1) The affinities of purified antibody binding to OX40-his was determined using a Surface Plasmon Resonance (SPR) biosensor, Biacore 8k. Antibodies were immobilized on the sensor chip through capture method. Antigen OX40-his was used as the analyte. The data of dissociation (kd) and association (ka) rate constants were obtained using Biacore 8k evaluation software. The equilibrium dissociation constants (KD) were calculated from the ratio of kd over ka.
(In general: Surface plasmon resonance follows binding to a sensor surface in real time, without labels.)
In turn, B1 had an equilibrium dissociation constant (Kd) of 13.8 nM.
For B2, the Kd turned out to be 5.94 nM. Against the preceding molecule, the Kd is about 2.3-fold lower.
Still for that read-out and setting: in the case of B3 it was 6.3 nM; in that of B4, 9.18 nM.

A further assay deals with T2, human OX40 (NP_003318) (human, UniProt P43489 29-214, limits assumed).
T2 construct: also called HuOX40; CD134
T2 sequence: T1 sequence
Description: ELISA, binding to human OX40.
For B5, the 50% effective concentration (EC50) is 0.0157 nM and 0.0151 nM.
On the same count and under the same terms, with B6 the figure was 0.0081 nM and 0.0079 nM; with B7, 0.0128 nM and 0.0136 nM; with B8, 0.0275 nM and 0.0272 nM.

The next assay addresses T3, OX40 on HT1080 OX40 stable cell line (Homo sapiens (Human), UniProt P43489 29-277).
T3 sequence: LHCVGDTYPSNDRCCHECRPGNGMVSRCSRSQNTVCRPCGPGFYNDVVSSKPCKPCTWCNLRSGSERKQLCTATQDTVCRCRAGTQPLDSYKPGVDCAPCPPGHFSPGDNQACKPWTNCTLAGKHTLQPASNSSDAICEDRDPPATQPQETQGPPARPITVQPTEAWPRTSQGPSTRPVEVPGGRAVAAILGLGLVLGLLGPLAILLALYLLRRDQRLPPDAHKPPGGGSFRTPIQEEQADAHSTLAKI
Description: cell-based or functional assay.
With B3, the “cell-based functional assay in the absence of OX40L, EC50” value was determined as 1.56 nM.

In the next assay the target is T2, human OX40 (NP_003318). The assay can be described thus: ELISA, binding to human OX40 (summary table; repeats Table 3). In general terms: ELISA stands for enzyme-linked immunosorbent assay.
In turn, B8 returned an EC50 of 0.0275 nM.

In a further assay the target is T4, murine OX40 (murine, UniProt P47741 20-211, limits assumed).
T4 construct: also called MuOX40; mouse OX40
T4 sequence (looked up): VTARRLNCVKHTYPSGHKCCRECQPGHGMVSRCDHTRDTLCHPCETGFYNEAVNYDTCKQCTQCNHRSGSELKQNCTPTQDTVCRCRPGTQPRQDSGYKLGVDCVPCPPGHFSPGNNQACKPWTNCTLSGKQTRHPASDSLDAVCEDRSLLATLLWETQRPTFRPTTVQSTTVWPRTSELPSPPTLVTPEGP
The assay can be described thus: ELISA, murine OX40 binding.
As to B5, the binding result is reported as “no binding”.
As to B6, the binding result was “no binding”.
Same read-out and setting: with B7 the entry was “no binding”; with B8, “no binding”.

The next assay deals with T3, OX40 on HT1080 OX40 stable cell line. The assay can be described thus: cell-based or functional assay. The source holds these as a separate data set.
In the case of B1, the “EC50 (read off the curve), IL-8 secretion, OX40L-free Ab agonist assay” value was about 1 nM.

The next assay deals with T2, human OX40 (NP_003318). The assay can be described thus: ELISA, binding to human OX40. The source holds these as a separate data set.
For B1, the concentration for a half-maximal effect (EC50) was 0.96 nM.
Still for that read-out and setting: in the case of B2 it was 3.1 nM.
In turn, B3 gave an EC50 of 0.6 nM.
Same read-out and setting: with B4 the figure was 0.028 nM.

The target in another assay is T1, OX40-his. Description: SPR Biacore 8K, antibody captured, OX40-his as analyte. Here is the method:
as §1
As for B1, the equilibrium dissociation constant (Kd) came out at 13.8 nM, the koff was 0.000848 s⁻¹ and the kon was found to be 61400 M⁻¹ s⁻¹.
B2 returned an equilibrium dissociation constant (Kd) of 5.94 nM, a koff of 0.000119 s⁻¹ and an on-rate constant (kon) of 20000 M⁻¹ s⁻¹.
The molecule B3 returned a dissociation constant Kd of 6.3 nM, an off-rate constant (koff) of 0.000178 s⁻¹ and a kon of 28200 M⁻¹ s⁻¹.
On the same counts, the results for B4 are 9.18 nM, 0.000865 s⁻¹ and 94200 M⁻¹ s⁻¹.

A further assay has as its target T3, OX40 on HT1080 OX40 stable cell line. The assay can be described thus: cell-based or functional assay. The source holds these as a separate data set.
Regarding B5, the “HT1080 + OX4OL/IL-8 Antagonist Assay IC50” value was 1.35 nM, the “HT1080 Agonist Assay EC50 (IL-8 secretion)” value was 8.08 nM and the “HT1080 Agonist Assay nBMAX” value was 1.52.
B6: the “HT1080 Agonist Assay EC50 (IL-8 secretion)” value worked out at 2.8 nM and the “HT1080 Agonist Assay nBMAX” value was 3.2.
On the same counts, the results for B7 are 6.74 nM and 4.49.
In the same order, the values of B8 are 1.56 nM and 4.54.

In another assay the target is T2, human OX40 (NP_003318). Description: OX40L/OX40 blocking ELISA, purified proteins.
Molecule B5 gave an IC50 of 0.0683 nM.
On the same count and under the same terms, in the case of B6 it was 0.0382 nM.

The next assay has as its target T3, OX40 on HT1080 OX40 stable cell line. Description: cell-based or functional assay. This is another data set of the same source.
As for B1, the “HT1080 + OX40L Antagonist Assay IC50” value came to 1.53 NM.
The same measure, in the same setting: with B2 the figure was 3.52 NM; with B3, 0.479 NM.
Consider B4, for which the “HT1080 + OX40L Antagonist Assay IC50” value was 109 NM.
B8: the “HT1080 + OX40L Antagonist Assay IC50” value stood at 1.34 NM.

The target in a further assay is T2, human OX40 (NP_003318). The assay can be described thus: OX40L/OX40 blocking ELISA, purified proteins; OX40L/OX40 ELISA blocking, purified proteins.
B7 had an IC50 of 0.0293 nM.

Another assay concerns the target T5, cyno OX40 (cyno).
T5 construct: also called CyOX40
The assay can be described thus: ELISA, binding to cyno OX40.
As to B5, the response was half-maximal at 0.0305 nM (EC50).
On the same count and under the same terms, in the case of B6 it was 0.0143 nM.
The same measure, in the same setting: with B7 the figure was 0.0171 nM; with B8, 0.0446 nM.

Values taken from patent US20210024640A1 (REMD BIOTHERAPEUTICS, published 2021).
